Results on one protein are retold here after doi:10.1101/286310, “Dynamics of human protein kinases linked to drug selectivity” (bioRxiv, 2018).

The data set deals with the molecule itself. The data set is described as follows: crystal structure; co-crystallised: 240 uM deP Aurora A 122-403 + 1.0 mM AT9283 + 250 uM Mb; sitting drop, 18 °C; 0.1 M Bis-Tris pH 5.5, 0.2 M magnesium chloride, 19% (w/v) PEG-3350.

B1: dephosphorylated Aurora A (122-403) (domain or fragment, human, UniProt O14965 122-403, looked up)
chain: ESKKRQWALEDFEIGRPLGKGKFGNVYLAREKQSKFILALKVLFKAQLEKAGVEHQLRREVEIQSHLRHPNILRLYGYFHDATRVYLILEYAPLGTVYRELQKLSKFDEQRTATYITELANALSYCHSKRVIHRDIKPENLLLGSAGELKIADFGWSVHAPSSRRTTLCGTLDYLPPEMIEGRMHDEKVDLWSLGVLCYEFLVGKPPFEANTYQETYKRISRVEFTFPDFVTEGARDLISRLLKHNPSQRPMLREVLEHPWITANSSKPSNCQNKESASKQS
notes: Aurora A kinase (Ser/Thr kinase), residues 122-403, dephosphorylated; also called AurA; deP Aurora A^122-403; source: expressed and purified as described before (Zorba et al., 2014); dephosphorylated state confirmed by mass spectrometry
In the case of B1, the binding result is “binds”.
